Laboratory results reported in paper PMC4678859, “PARN deadenylase is involved in miRNA-dependent degradation of TP53 mRNA in mammalian cells” (Nucleic Acids Research, 2015).

Biological target: GST-Ago-2 (full-length recombinant Ago-2) (UniProt Q9UKV8 1-859)
Assay: cell-based or functional assay

Chain of GST-Ago-2 (full-length recombinant Ago-2) (Q9UKV8 whole entry): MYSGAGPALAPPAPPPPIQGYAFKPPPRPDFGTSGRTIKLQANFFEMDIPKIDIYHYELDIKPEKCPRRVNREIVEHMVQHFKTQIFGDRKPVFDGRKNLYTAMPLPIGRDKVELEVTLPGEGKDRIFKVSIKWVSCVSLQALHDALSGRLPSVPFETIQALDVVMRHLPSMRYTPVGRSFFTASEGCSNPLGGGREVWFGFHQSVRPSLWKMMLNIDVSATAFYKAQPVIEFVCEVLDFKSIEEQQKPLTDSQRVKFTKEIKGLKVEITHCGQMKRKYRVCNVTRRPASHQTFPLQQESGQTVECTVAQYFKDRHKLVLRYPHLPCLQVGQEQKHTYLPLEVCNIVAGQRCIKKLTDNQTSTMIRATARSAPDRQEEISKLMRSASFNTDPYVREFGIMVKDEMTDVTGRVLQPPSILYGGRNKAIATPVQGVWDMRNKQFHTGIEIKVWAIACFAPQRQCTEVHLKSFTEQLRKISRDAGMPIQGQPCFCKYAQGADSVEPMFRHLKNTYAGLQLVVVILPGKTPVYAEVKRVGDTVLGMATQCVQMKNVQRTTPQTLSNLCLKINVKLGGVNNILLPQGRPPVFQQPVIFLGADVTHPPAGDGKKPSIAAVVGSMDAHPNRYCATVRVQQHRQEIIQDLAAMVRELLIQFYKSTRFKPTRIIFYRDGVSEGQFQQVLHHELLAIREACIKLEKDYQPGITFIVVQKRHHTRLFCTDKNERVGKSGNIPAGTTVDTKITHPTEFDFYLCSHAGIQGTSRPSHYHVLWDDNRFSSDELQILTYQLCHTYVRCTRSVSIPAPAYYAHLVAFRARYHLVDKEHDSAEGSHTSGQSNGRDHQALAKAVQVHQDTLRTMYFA

B1: His-PARN (full-length recombinant PARN) (enzyme, UniProt O95453 1-639, looked up)
chain: MEIIRSNFKSNLHKVYQAIEEADFFAIDGEFSGISDGPSVSALTNGFDTPEERYQKLKKHSMDFLLFQFGLCTFKYDYTDSKYITKSFNFYVFPKPFNRSSPDVKFVCQSSSIDFLASQGFDFNKVFRNGIPYLNQEEERQLREQYDEKRSQANGAGALSYVSPNTSKCPVTIPEDQKKFIDQVVEKIEDLLQSEENKNLDLEPCTGFQRKLIYQTLSWKYPKGIHVETLETEKKERYIVISKVDEEERKRREQQKHAKEQEELNDAVGFSRVIHAIANSGKLVIGHNMLLDVMHTVHQFYCPLPADLSEFKEMTTCVFPRLLDTKLMASTQPFKDIINNTSLAELEKRLKETPFNPPKVESAEGFPSYDTASEQLHEAGYDAYITGLCFISMANYLGSFLSPPKIHVSARSKLIEPFFNKLFLMRVMDIPYLNLEGPDLQPKRDHVLHVTFPKEWKTSDLYQLFSAFGNIQISWIDDTSAFVSLSQPEQVKIAVNTSKYAESYRIQTYAEYMGRKQEEKQIKRKWTEDSWKEADSKRLNPQCIPYTLQNHYYRNNSFTAPSTVGKRNLSPSQEEAGLEDGVSGEISDTELEQTDSCAEPLSEGRKKAKKLKRMKKELSPAGSISKNSPATLFEVPDTW
**Q.** B1 was tested. Which “in vitro reconstituted deadenylation of radiolabeled L3(A30) RNA substrate, limiting amounts of His-PARN and increasing amounts of GST-Ago-2” value did it give?
**A.** 2.4 fold
